Assay results published in publication PMC11940548.

Columns and labels:
[1] = molecular target: MotA1 from Paenibacillus sp. TCA20 (Paenibacillus sp. TCA20); experiment: cryo-EM structure; co-expressed chimeric MotA1/MotB1-His6 complex, solubilised in LMNG, purified by Ni-affinity and SEC, reconstituted into peptidisc; 20 mM Tris-HCl pH 8.0, 100 mM NaCl; single particle analysis, three classes (3.3, 3.3 and 3.5 Å)
[2] = molecular target: chimeric MotB1 (N-terminal transmembrane domain of Paenibacillus sp. TCA20 MotB1 joined to the C-terminal periplasmic domain of E. coli MotB) (Paenibacillus sp. TCA20 | E. coli) (UniProt P0AF06); experiment: as above

Row | stoichiometry N [1] | stoichiometry N [2] | Substance
1 | 5 | – | MotA1 from Paenibacillus sp. TCA20 (natural protein)
2 | – | 2 | chimeric MotB1 (N-terminal transmembrane domain of Paenibacillus sp. TCA20 MotB1 joined to the C-terminal periplasmic domain of E. coli MotB) (from UniProt P0AF06 104-302)
